We go through eight molecules from patent US20210388087A1.

B1: dBBDu183H V95Q / dBBDu072L (antibody, name in Kabat numbering, V domains shown)
VH: QVQLVESGGGLVQPGRSLRLSCAASGFTFSNAWMHWVRQAPGKGLEWVAQIKDKGNAYAAYYAPSVKGRFTISRDDSKNSIYLQMNSLKTEDTAVYYCHYQHYASASTVLPAFGVDAWGQGTTVTVSS
VL: DIVMTQSPLSLPVTPGEPASISCQASQELVHMNRNTYLHWYQQKPGQAPRLLIYKVSNRFPGVPDRFSGSGSGTDFTLKISRVEAEDVGVYYCAQGTSVPFTFGQGTKLEIK
B2: dBBDu183H A98Q / dBBDu072L (antibody, name in Kabat numbering, V domains shown)
VH: QVQLVESGGGLVQPGRSLRLSCAASGFTFSNAWMHWVRQAPGKGLEWVAQIKDKGNAYAAYYAPSVKGRFTISRDDSKNSIYLQMNSLKTEDTAVYYCHYVHYQSASTVLPAFGVDAWGQGTTVTVSS
VL: DIVMTQSPLSLPVTPGEPASISCQASQELVHMNRNTYLHWYQQKPGQAPRLLIYKVSNRFPGVPDRFSGSGSGTDFTLKISRVEAEDVGVYYCAQGTSVPFTFGQGTKLEIK
B3: dBBDu183H S100aQ / dBBDu072L (antibody, name in Kabat numbering, V domains shown)
VH: QVQLVESGGGLVQPGRSLRLSCAASGFTFSNAWMHWVRQAPGKGLEWVAQIKDKGNAYAAYYAPSVKGRFTISRDDSKNSIYLQMNSLKTEDTAVYYCHYVHYASAQTVLPAFGVDAWGQGTTVTVSS
VL: DIVMTQSPLSLPVTPGEPASISCQASQELVHMNRNTYLHWYQQKPGQAPRLLIYKVSNRFPGVPDRFSGSGSGTDFTLKISRVEAEDVGVYYCAQGTSVPFTFGQGTKLEIK
B4: dBBDu183H Y97Q / dBBDu072L (antibody, name in Kabat numbering, V domains shown)
VH: QVQLVESGGGLVQPGRSLRLSCAASGFTFSNAWMHWVRQAPGKGLEWVAQIKDKGNAYAAYYAPSVKGRFTISRDDSKNSIYLQMNSLKTEDTAVYYCHYVHQASASTVLPAFGVDAWGQGTTVTVSS
VL: DIVMTQSPLSLPVTPGEPASISCQASQELVHMNRNTYLHWYQQKPGQAPRLLIYKVSNRFPGVPDRFSGSGSGTDFTLKISRVEAEDVGVYYCAQGTSVPFTFGQGTKLEIK
B5: dBBDu183H V100iQ / dBBDu072L (antibody, name in Kabat numbering, V domains shown)
VH: QVQLVESGGGLVQPGRSLRLSCAASGFTFSNAWMHWVRQAPGKGLEWVAQIKDKGNAYAAYYAPSVKGRFTISRDDSKNSIYLQMNSLKTEDTAVYYCHYVHYASASTVLPAFGQDAWGQGTTVTVSS
VL: DIVMTQSPLSLPVTPGEPASISCQASQELVHMNRNTYLHWYQQKPGQAPRLLIYKVSNRFPGVPDRFSGSGSGTDFTLKISRVEAEDVGVYYCAQGTSVPFTFGQGTKLEIK
B6: dBBDu183H G100hQ / dBBDu072L (antibody, name in Kabat numbering, V domains shown)
VH: QVQLVESGGGLVQPGRSLRLSCAASGFTFSNAWMHWVRQAPGKGLEWVAQIKDKGNAYAAYYAPSVKGRFTISRDDSKNSIYLQMNSLKTEDTAVYYCHYVHYASASTVLPAFQVDAWGQGTTVTVSS
VL: DIVMTQSPLSLPVTPGEPASISCQASQELVHMNRNTYLHWYQQKPGQAPRLLIYKVSNRFPGVPDRFSGSGSGTDFTLKISRVEAEDVGVYYCAQGTSVPFTFGQGTKLEIK
B7: dBBDu183H A100fQ / dBBDu072L (antibody, name in Kabat numbering, V domains shown)
VH: QVQLVESGGGLVQPGRSLRLSCAASGFTFSNAWMHWVRQAPGKGLEWVAQIKDKGNAYAAYYAPSVKGRFTISRDDSKNSIYLQMNSLKTEDTAVYYCHYVHYASASTVLPQFGVDAWGQGTTVTVSS
VL: DIVMTQSPLSLPVTPGEPASISCQASQELVHMNRNTYLHWYQQKPGQAPRLLIYKVSNRFPGVPDRFSGSGSGTDFTLKISRVEAEDVGVYYCAQGTSVPFTFGQGTKLEIK
B8: dBBDu183H H96Q / dBBDu072L (antibody, name in Kabat numbering, V domains shown)
VH: QVQLVESGGGLVQPGRSLRLSCAASGFTFSNAWMHWVRQAPGKGLEWVAQIKDKGNAYAAYYAPSVKGRFTISRDDSKNSIYLQMNSLKTEDTAVYYCHYVQYASASTVLPAFGVDAWGQGTTVTVSS
VL: DIVMTQSPLSLPVTPGEPASISCQASQELVHMNRNTYLHWYQQKPGQAPRLLIYKVSNRFPGVPDRFSGSGSGTDFTLKISRVEAEDVGVYYCAQGTSVPFTFGQGTKLEIK

Sequence of Human CD137 ECD (human) (chain, as listed by the source limits assumed): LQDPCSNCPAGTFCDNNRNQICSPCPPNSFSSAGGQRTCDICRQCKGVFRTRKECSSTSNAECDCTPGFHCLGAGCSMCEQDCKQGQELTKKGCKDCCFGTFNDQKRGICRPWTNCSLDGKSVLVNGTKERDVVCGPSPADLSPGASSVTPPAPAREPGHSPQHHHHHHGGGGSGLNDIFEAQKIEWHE

This test concerns the target Human CD137 ECD (human). Briefly: SPR, vs parent H183/L072.
In the case of B1, the fold change of affinity worked out at 0 fold.

As to B2, the fold change of affinity worked out at 0 fold.

As to B3, the fold change of affinity was found to be 0 fold.

As for B4, the fold change of affinity was determined as 0 fold.

As for B5, the fold change of affinity amounted to 0 fold.

Consider B6, for which the fold change of affinity is 0 fold.

Consider B7, for which the fold change of affinity came out at 0 fold.

For B8, the fold change of affinity stood at 0 fold.
